The data set in a line: soluble on expression in E. coli; label from the status in PepcDB or PDB records.
Turning to “NSRVSDLDLELLFQDRAARLGKSISRLIVVASLIDKPTNLGGLCRTCEVFGASVLVVGSLQCISDKQFQHLSVSAEQWLPLVEVKPPQLIDYLQQKKTEGYTIIGVEQTAKSLDLTQYCFPEKSLLLLGNEREGIPANLIQQLDVCVEIPQQGIIRSLNVHVSGALLIWEYTRQQLLSHGDTKP”, the “soluble on expression in E. coli” value is “soluble”.

Turning to “MIPDDEFIKNPSVPGPTAMEVRCLIMCLAEPGKNDVAVDVGCGTGGVTLELAGRVRRVYAIDRNPEAISTTEMNLQRHGLGDNVTLMEGDAPEALCKIPDIDIAVVGGSGGELQEILRIIKDKLKPGGRIIVTAILLETKFEAMECLRDLGFDVNITELNIARGRALDRGTMMVSRNPVALIYTGVSHENKD”, the “soluble on expression in E. coli” value is recorded as “soluble”.

As to “MQLEPQIKTQLQAIVEAARERRAEDVVALDLTEVSSSLEYFVICTASAGLQLNAVQENIREKAQEAGLPRPSIEGPSERWLLLAFGGSIVVHIMTKDAREYYDLEGLWSDAKVLDL”, the “soluble on expression in E. coli” value is on record as “soluble”.

As to “GSKATDSVLQGSEGNKVKRTSCMYGANCYRKNPVHFQHFSHPGDSDYGGVQIVGQDETDDRPECPYGPSCYRKNPQHKIEYRHNTLPVRNV”, the “soluble on expression in E. coli” value is on record as “soluble”.

As for “MKMMDANEIISFIQKSEKKTPVKVYIKGDLKEVTFPETVQAFVNKKSGVLFGEWSEIKTILDENSKYIVDYVVENDRRNSAIPMLDLKGIKARIEPGAIIRDHVEIGDNAVIMMNATINIGAVIGEGSMIDMNAVLGGRATVGKNCHVGAGAVLAGVIEPPSAKPVIVEDDVVIGANVVVLEGVTVGKGAVVAAGAVVTEDVPPYTVVAGTPARVIKEIDEKTKAKTEIKQELRQLNPEK”, the “soluble on expression in E. coli” value is reported as “not soluble”.

Turning to “MDIKINDITLGNNSPFVLFGGICVLESLDSTLQTCAHYVEVTRKLGIPYIFKASFDKANRSSIHSYRGVGLEEGLKIFEKVKAEFGIPVITDVHEPHQCQPVAEVCDVIQLPAFLARQTDLVVAMAKTGNVVNIKKPQFLSPSQMKNIVEKFHEAGNGKLILCERGSSFGYDNLVVDMLGFGVMKQTCGNLPVIFDVTHSLQTRDAGSAASGGRRAQALDLALAGMATRLAGLFLESHPDPKLAKCEGASALPLHLLEDFLIRIKALDDLIKSQPILTIE”, the “soluble on expression in E. coli” value is reported as “soluble”.

As to “MSEDDPRPLHIRRQGLDPADELLAAGALTRVTIGSGADAETHWMATAHAVVRQVMGDHQQFSTRRRWDPRDEIGGKGIFRPRELVGNLMDYDPPEHTRLRRKLTPGFTLRKMQRMAPYIEQIVNDRLDEMERAGSPADLIAFVADKVPGAVLCELVGVPRDDRDMFMKLCHGHLDASLSQKRRAALGDKFSRYLLAMIARERKEPGEGMIGAVVAEYGDDATDEELRGFCVQVMLAGDDNISGMIGLGVLAMLRHPEQIDAFRGDEQSAQRAVDELIRYLTVPYSPTPRIAREDLTLAGQEIKKGDSVICSLPAANRDPALAPDVDRLDVTREPIPHVAFGHGVHHCLGAALARLELRTVFTELWRRFPALRLADPAQDTEFRLTTPAYGLTELMVAW”, the “soluble on expression in E. coli” value is listed as “soluble”.

Take “MEDFFSIGQIINTHGVRGELKIYPLTDDINRFDDLDSVYVDNEIKKVISVKKQPNKLILKLEGIDTLDEAVKYKNKYIKVLREDAVELKEGQYFIKDIIGCNVFDENDKDLGEVYDVISTKNNDVYCIRKEGQQDILVPALKDIVLKIEIENKKIVIKAVEEWLESLEHHHHHH”: the “soluble on expression in E. coli” value is reported as “soluble”.

For “MGSDKIHHHHHHMLSIERQCQCMQLLIETFTVPIEIRALKTANIYRLETDDSAFLIDSGMSDNSIKSIEQNLKKIDFVFITHLHIDHLGGVLYLHEKYGIPAYMNHLDLDLIMNANEDRDGYIKRHSEIFRVNGVPPSMVEEIITMHPVIRYFDYYSKLDFVQDYRKINASGIKFVEVPGHSPGSTAVYIEDSRDLFAGDHILDRITPNIAVYGDEDDLGNYLESLEKVRAMKVDRIFPGHGNVITEPKIRIDDIEKHHHDRMRAIIAALKSPKTAYEVARDITWSKGRKMDTMNFMERNFAILETVSHLKHMDRKGMVRRIEENGIIKYSYIQ”, the “soluble on expression in E. coli” value is “not soluble”.

“MSEDVSKNLSETLFVKHKQAKETSALTQYMPTSKKILDDREQQEDRAWYRHLRRLQWAWQGLSPIEMEGVLSRIASSTHSRTHDDWLDTVMGYHSGNWTFEWIKLGMEHQRRANDLKGEDAADELFTASLCFSIAGYPHLKNDNLALQAQVLANKAYSEGAEKTQYTIKQIEVPYQKRKIIANLHLPRTDKQLPVVMVSAGLDSLQTDMWRLFRNHFAPKDIAMLTVDMPSVGHSSHWPLTEDSSCLHQAVLNELYSIPYVDHHKVGLVGFRFGGNAMVRLSFLEQEKIKACVALGAPVHDLFTSPKKLQKMPKMYLDMLASRLGKSAVDINSMAGQMMAWSLKVQGFLSSRKTKVPILALSLEGDPVSPYSDNQLVALFSHYGQAKKISSKTITKGYEQSLDLAIKWLEDELLR”: the “soluble on expression in E. coli” value is “not soluble”.

Consider “MGSDKIHHHHHHMVSRSPFESFQWKSDIFNCESTDIDNFYLLLEQEMTRLGMVEKNLGEVGKYKVSLYQSPAAKSGLPSLLISAGFHGEESAGPWGLLHFLSEASADLFERVNLSLLPLVNPTGFSRGHRFNKYGENPNRGFVFENGKPKANEHTSVEGKLLLDHAQLLIAACRDGILTCHEDVLSREAYVYSFEPSQVPGRFSLDLRDTLGGYFPIAVDGEIDACPVKDGLIFNHFDTSFEACLVRSGARVGACTETPALQNFDQRVLANSAAMTHFLALCAPLCD”, for which the “soluble on expression in E. coli” value is recorded as “not soluble”.

Regarding “SLVIIYDGDSYGISKRIDYMLNSTTSSGKRTGILAIGAHPDDIELGCGASLSYYSNEKVYIISVVMTPGCCGAEYIDRHKESQEALNMLGCNKLIPLNFEDTRLYLQIKEMISSLEYIIENETPQDVEITRVYTMNNTDRHQDHIAVYQASMVACRYIPQILGYETPSTCLSFLPQVFESVDEVHFNKKILALQKHKSQIHRRYIQPEYIIAQAKFRGQQVSHSMCEGFVVHKMVL”, the “soluble on expression in E. coli” value is given as “soluble”.

Consider “MAQHGALETLKDLAEKEVDDAARLLGEMRRGCQQAEEQLKMLIDYQNEYRSNLNTDMGNGIASNRWINYQQFIQTLEKAIEQHRLQLTQWTQKVDLALKSWREKKQRLQAWQTLQDRQTAAALLAENRMDQKKMDEFAQRAAMRKPE”, for which the “soluble on expression in E. coli” value is recorded as “not soluble”.

Take “MLSPDNVFIAIKPVDMRRGIDSLTQYIQDELRSTWHEGAAFVFVNKARSRIKVLRWDKHGVWLCTRRLHKGSFRWPRANDAAWHLTPDEFNWLIAGVDWQQVKGHDLTKWVWQNEPELRPENTQNTLLTQ”: the “soluble on expression in E. coli” value is “not soluble”.

With “MSLKWSAIPFQTLYRSIESGEFDFDLFKEVLPDLQNLNLNTDKLKNNASRSQLEKGEIELSDGSTFKVNQEFIFEAISLSDELNLDEIVACELILSGDTTANNGKVQYFLRRQYILQIVSFIVNCFHEDTELYQELIKNGALVSNILSAFKFIHTQLSEIKQQINKAQILENYNALFQQNIKFRRDFLLREYDILSQILYGLVDKGAIMKNKDFILSLLHHVSELDSNDFFIIYYTPAFFHLFASLRVLPDADVKLLHSQFMKDLKDDSIYTKPVKVALIFIFFAYFIGWCKEDPKRRADTMDFKTDVDEPMTSAVELGAIEQILIFAADTSIVEQDKSMELFYDIRSLLERHIPRLIPKQLLDDEKIFSQTTNSTYNPASATDNMSGRGLWNPSYPGMMSTTGTARLNSMPNNVNEYSYTTIVLSDQTQEFFLSSFDDVLQTIITDCAFLLTKIKDAEEDSLLSGEDLTLDDISLKADLERFFLSIYFFYASRPEYSCTFWSDKESNAYGFIEWCSRCNDNLMRSCFYLMVSSLSFGPENALNVYHYFGENSSISWKNIAQCLSDYTKKISNFNSSLHKRQQFSESTHNDIDSTAVALEEGLNEEAVIFLSSLLTLVGSVTYQVDEDVKSSLSKVFSDVLFEFTKINTPLVGAAFKVISNLVPKLESSRTKFWSFLDSLIFKDSSLNYSSESYRNAFTNVLTKYSDVLGFLQLFHNLISIHSRENNSEYMVFGKLAFPTRLGQGYRKVGIWPYFDYIFNDILAHVDQIVDIRNKRAVQLPILKIIYTGLCSFDYSVILNSIPAAANLDALVDCENFFNYVQECPAIPIFNYIFTEKIYKSIFNVVDVGVDQLSIELEGGKNQAELLQLAVKIINKVLDYQETYVEELFPIVKKHGKTDYFLPKNYSLHGLRSFYDAIFFNIPLVAHLGLYVGVDDQILATNSLRILAKLSERSNGSVASLSEGHHHHHH”, the “soluble on expression in E. coli” value is “soluble”.

As to “MGSDKIHHHHHHMLKQKTLKDSFSLSGKGLHTGLDLTVTFNPAPDNHGYKIQRIDLEGQPTIDAVADNVTETTRGTVLSKNGVKVSTVEHGMAALYALGIDNCLIQVNGPEFPILDGSAQYYVQEIERVGTEEQSAVKDFYIIKSKIEFRDESTGSSIIVLPDENFSLNVLVSYDSTIIPNQFATLEDMHNFKDEVAASRTFVFVREIEPLLSAGLIKGGDLDNAIVIYERKMSQESYDKLADVMGVPHMDADQLGYINHKPLVWPNECARHKLLDVIGDLALIGKPIKGRIIATRPGHTINNKFARQMRKEIRLHEIQAPTYDCNREPVMDVNRIRELLPHRYPFQLVDKVIEMGASYIVGIKNITANEPFFQGHFPQEPVMPGVLQIEAMAQVGGLLVLNSVDEPERYSTYFMKIDGVKFRQKVVPGDTLLFRVELLAPIRRGISTMKGYAFVGEKVVCEAEFMAQIVKNK”, the “soluble on expression in E. coli” value was “not soluble”.

“MSLKVSAHNGNSDPSGAVQRRQSFRKSKTEDTVGTGNNGAANGGGGGAAANNNQMLENDLLSKYMGNQSPARQQVKKNLLNGTSGGGESVPAKPKTYDARCYVQNGSINFGKIITDEVLAADYDLVEAAKKMSDFAGTTALIAVIHRTKLIVANVGDSRGVMCDFKGNAIPLSFDHKPQQVREQKRIADAGGFIAFKGVWRVAGILATSRALGDYPLKEKNLVIANPDVLSFDLVDHRPQFLILASDGLWDTFTNEEAVAYVRERLDEPHFGAKSIALQSYSRGSVDNITVLVIVLKNGRYEIGSSSNEGHHHHHH”: the “soluble on expression in E. coli” value is “soluble”.

With “GELFIKELLWMLRHQKDIFNNLARQFQKEVLCPNKCGVMSQTLIWCLKCEKQLHICRKSLDCGERHIEVHRSEDLVLDCLLSWHRASKGLTDYSFYRVWENSSETLIAKGKEPYLTKSMVGPEDAGNYRCVLDTINQGHATVIRYDVTVLPPKHSEENQPP”, the “soluble on expression in E. coli” value is recorded as “not soluble”.

Consider “MSTLKIAPSILAADYANFASELARIEETDAEYVHIDIMDGQFVPNISFGADVVASMRKHSKLVFDCHLMVVDPERYVEAFAQAGADIMTIHTESTRHIHGALQKIKAAGMKAGVVINPGTPATALEPLLDLVDQVLIMTVNPGFGGQAFIPECLEKVATVAKWRDEKGLSFDIEVDGGVDNKTIRACYEAGANVFVAGSYLFKASDLVSQVQTLRTALNV”, for which the “soluble on expression in E. coli” value is given as “soluble”.

Turning to “FRYDNTTPKTLRHVALLLEQGIETNDFYSGLHRRELKQTRLEGYILQHFSIIDGCVGVMKLTSELLAEYDVTANESAAFVNSFSDVE”, the “soluble on expression in E. coli” value was “soluble”.

Consider “MDYSHQTSLVPCGQDKYISKNELLLHLKTYNLYYEGQNLQLRHREEEDEFIVEGLLNISWGLRRPIRLQMQDDNERIRPPPSSSSWHSGCNLGAQGTTLKPLTVPKVQISEVDAPPEGDQMPSSTDSRGLKPLQEDTPQLMRTRSDVGVRRRGNVRTPSDQRRIRRHRFSINGHFYNHKTSVFTPAYGSVTNVRINSTMTTPQVLKLLLNKFKIENSAEEFALYVVHTSGEKQKLKATDYPLIARILQGPCEQISKVFLMEKDQVEEVTYDVAQYIKFEMPVLKSFIQKLQEEEDREVKKLMRKYTVLRLMIRQRLEEIAETPATILEHHHHHH”, for which the “soluble on expression in E. coli” value is reported as “soluble”.

The values above are taken from the DeepSol protein solubility set.
